Source: paper PMC10866537 (2024)

Target: T1, mouse 4-1BB–Fc protein (mouse, UniProt P20334 24-187)
T1 chain: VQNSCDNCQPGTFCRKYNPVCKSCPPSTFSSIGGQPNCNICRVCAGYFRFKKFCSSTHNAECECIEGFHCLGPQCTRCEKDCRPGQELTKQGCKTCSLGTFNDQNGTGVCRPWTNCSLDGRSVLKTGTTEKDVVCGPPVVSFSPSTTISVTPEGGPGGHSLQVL
Test: SPR

B1: mouse siglec-4–HIS protein (domain or fragment)
chain: GHWGAWMPSTISAFEGTCVSIPCRFDFPDELRPAVVHGVWYFNSPYPKNYPPVVFKSRTQVVHESFQGRSRLLGDLGLRNCTLLLSTLSPELGGKYYFRGDLGGYNQYTFSEHSVLDIVNTPNIVVPPEVVAGTEVEVSCMVPDNCPELRPELSWLGHEGLGEPTVLGRLREDEGTWVQVSLLHFVPTREANGHRLGCQAAFPNTTLQFEGYASLDVKYPPVIVEMNSSVEAIEGSHVSLLCGADSNPPPLLTWMRDGMVLREAVAKSLYLDLEEVTPGEDGVYACLAENAYGQDNRTVELSVMYAPWKPTVNGTVVAVEGETVSILCSTQSNPDPILTIFKEKQILATVIYESQLQLELPAVTPEDDGEYWCVAENQYGQRATAFNLSVEFAPIILLESHCAAARDTVQCLCVVKSNPEPSVAFELPSRNVTVNETEREFVYSERSGLLLTSILTIRGQAQAPPRVICTSRNLYGTQSLELPFQGAHRLMWAKIGP
**Q.** For B1, which koff is on record?
**A.** The koff was 0.011 s⁻¹.
